* marks the point of attachment. Biotin = O=C1N[C@H]2[C@H](CS[C@H]2CCCCC(=O)*)N1; linker = not defined here
Key:
Fab397 = test: Isothermal titration calorimetry (ITC), NANP repeat peptides to Fab397; assay type: binding, human; settings: for TΔS / ΔH / ΔS / No. of sites (N-value) / Kd: ITC, arithmetic mean ± SD, n = 4; for TΔS / ΔH / ΔS: Fab397, 25 °C; for No. of sites (N-value) / Kd: peptide in syringe, 8.9 μM Fab397 in cell, DPBS, 25 °C, single-site model
Protocol: Titrations were performed on a MicroCal Auto-iTC200 (GE Healthcare, Chicago, IL). Prior to the experiments, wild-type Fab397 was extensively dialyzed against Dulbecco's PBS (Thermo Fisher, Waltham, MA). […] The Fab and peptide concentrations were determined by UV absorbance at 280 nm and 205 nm. Molar extinction coefficients for the peptides at 205 nm were estimated using a previously published method. The titrations were all performed with peptides in the syringe and antibodies in the cell and consisted of 16 injections of 2.45 μL peptide at a rate of 0.5 μl/s […], with injection duration of 4.9 s, injection interval of 180 s, and reference power of 5 μCal. Experiments were conducted in quadruplet (N = 4) at 25 °C. Fitting of the integrated titration peaks was performed with Origin 7.0 software using a single-site binding model. The first data point was excluded from the fit as commonly done.
Data for sporozoite ELISA assay (N = 2) were fitted and plotted using GraphPad Prism, version 7.0. For mouse liver burden assay (N = 5 mice), data were compared for significance using a Mann–Whitney U test with p < 0.05 indicated a statistically significant difference. […] All statistical parameters and graphs for the mouse liver burden assay were calculated and plotted using R with the Hmisc and ggplot2 packages. Each ITC experiment was performed with four replicates (N = 4), and the data were reported as the arithmetic mean ± SD.

Fab317 = molecular target: Fab317; parameters: method as in PMID 29138320; settings: Fab317 with NPNA3; cited from earlier work
[1] = molecular target: T1, NPNA8 peptide (Ac-NPNANPNANPNANPNANPNANPNANPNANPNA-NH2) (Plasmodium falciparum, synthetic CSP …); test: ITC; settings: both partners purified
T1 construct: also called (NANP)8
T1 chain: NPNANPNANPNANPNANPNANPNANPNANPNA

[2] = molecular target: T2, NPNA4 peptide (Ac-NPNANPNANPNANPNA-NH2) (Plasmodium falciparum, synthetic CSP …); test: ITC; settings: both partners purified
T2 construct: also called (NANP)4
T2 chain: Ac-NPNANPNANPNANPNA-NH2

[3] = molecular target: T1, NPNA8 peptide …; test: negative-stain electron microscopy; settings: both partners purified
[4] = molecular target: T3, biotinylated NPNA3 peptide (Biotin-linker-NPNANPNANPNA-NH2) (Plasmodium falciparum, synthetic CSP …, reading uncertain); test: BLI; settings: both partners purified
T3 construct: not shown: biotin, N-terminal, kept
T3 chain: {Biotin-linker}-NPNANPNANPNA-NH2

Molecule: CC(=O)N[C@@H](CC(N)=O)C(=O)N1CCC[C@H]1C(=O)N[C@@H](CC(N)=O)C(=O)N[C@@H](C)C(=O)N[C@@H](CC(N)=O)C(=O)N1CCC[C@H]1C(=O)N[C@@H](CC(N)=O)C(=O)N[C@@H](C)C(N)=O [NPNA2]
- TΔS (Fab397): -5.859 ± 0.593 kcal/mol
- ΔH (Fab397): -13.303 ± 0.556 kcal/mol
- ΔS (Fab397): −19.7 ± 2.0 cal^−1·mol^−1·K^−1
- No. of sites (N-value) (Fab397): 1.25 ± 0.02

Molecule: CC(=O)N[C@@H](CC(N)=O)C(=O)N1CCC[C@H]1C(=O)N[C@@H](CC(N)=O)C(=O)N[C@@H](C)C(=O)N[C@@H](CC(N)=O)C(=O)N1CCC[C@H]1C(=O)N[C@@H](CC(N)=O)C(=O)N[C@@H](C)C(=O)N[C@@H](CC(N)=O)C(=O)N1CCC[C@H]1C(=O)N[C@@H](CC(N)=O)C(=O)N[C@@H](C)C(=O)N[C@@H](CC(N)=O)C(=O)N1CCC[C@H]1C(=O)N[C@@H](CC(N)=O)C(=O)N[C@@H](C)C(N)=O [NPNA4]
- TΔS (Fab397): -9.884 ± 0.147 kcal/mol
- ΔH (Fab397): -19.915 ± 0.102 kcal/mol
- ΔS (Fab397): −33.2 ± 0.5 cal^−1·mol^−1·K^−1
- Kd (Fab397): 44 ± 3 nM
- No. of sites (N-value) (Fab397): 1.14 ± 0.01

Molecule: CC(=O)N[C@@H](CC(N)=O)C(=O)N1CCC[C@H]1C(=O)N[C@@H](CC(N)=O)C(=O)N[C@@H](C)C(=O)N[C@@H](CC(N)=O)C(=O)N1CCC[C@H]1C(=O)N[C@@H](CC(N)=O)C(=O)N[C@@H](C)C(=O)N[C@@H](CC(N)=O)C(=O)N1CCC[C@H]1C(=O)N[C@@H](CC(N)=O)C(=O)N[C@@H](C)C(=O)N[C@@H](CC(N)=O)C(=O)N1CCC[C@H]1C(=O)N[C@@H](CC(N)=O)C(=O)N[C@@H](C)C(=O)N[C@@H](CC(N)=O)C(=O)N1CCC[C@H]1C(=O)N[C@@H](CC(N)=O)C(=O)N[C@@H](C)C(=O)N[C@@H](CC(N)=O)C(=O)N1CCC[C@H]1C(=O)N[C@@H](CC(N)=O)C(=O)N[C@@H](C)C(=O)N[C@@H](CC(N)=O)C(=O)N1CCC[C@H]1C(=O)N[C@@H](CC(N)=O)C(=O)N[C@@H](C)C(=O)N[C@@H](CC(N)=O)C(=O)N1CCC[C@H]1C(=O)N[C@@H](CC(N)=O)C(=O)N[C@@H](C)C(N)=O [NPNA8]
- binding stoichiometry inferred from N-value (Fab397; ITC with Fab397, peptide:Fab ratio, or number of Fabs per peptide as worded): two Fabs bind per peptide
- TΔS (Fab397): -30.024 ± 0.179 kcal/mol
- ΔH (Fab397): -40.09 ± 0.143 kcal/mol
- ΔS (Fab397): −100.7 ± 0.6 cal^−1·mol^−1·K^−1
- Kd (Fab397): 41 ± 3 nM
- No. of sites (N-value) (Fab397): 0.56 ± 0.01

Molecule: NPNA3: NPNA3 peptide, bound by Fab317 in ref 29 ({Biotin-linker}-NPNANPNANPNA-NH2; reading uncertain; also: linker not given here)
- Kd (Fab317): 78 ± 16 nM

B1: Fab397 wild type (Fab, V domains shown)
VH: EVQLVKSGGGLVKPGGSLRLSCAVSGFTFTDAWMSWVRQAPGKGPEWVGRIKSNPDGGTTDYAAPVRGRFTISRDDSKNTLYLQMNNLKTEDTAVYYCITDRDFYRSGGSWGQGTLVTV
VL: DIVMTQSPLSLPVTPGEPASISCRSRQSLLYSNGDNYLDWYLQKPGQSPQLLIYLGSNRAPGVPDRFSGSGSGTDFTLKISRVEAEDVGVYYCMQTLQTPHTFGQGTKLEIK
- Kd [1]: 41 nM
- dH [1]: -40.1 kcal/mol
- stoichiometry N [1]: 0.56
- Kd [2]: 44 nM
- dH [2]: -19.9 kcal/mol
- stoichiometry N [2]: 1.14
- stoichiometry N [3]: 2
- binding result [4]: binds

B2: Fab397 HD95A (Fab, V domains shown)
VH: EVQLVKSGGGLVKPGGSLRLSCAVSGFTFTDAWMSWVRQAPGKGPEWVGRIKSNPDGGTTDYAAPVRGRFTISRDDSKNTLYLQMNNLKTEDTAVYYCITARDFYRSGGSWGQGTLVTV
VL: DIVMTQSPLSLPVTPGEPASISCRSRQSLLYSNGDNYLDWYLQKPGQSPQLLIYLGSNRAPGVPDRFSGSGSGTDFTLKISRVEAEDVGVYYCMQTLQTPHTFGQGTKLEIK
- binding result [4]: no binding (tested: 2000 nM)

B3: Fab397 HR96A (Fab, V domains shown)
VH: EVQLVKSGGGLVKPGGSLRLSCAVSGFTFTDAWMSWVRQAPGKGPEWVGRIKSNPDGGTTDYAAPVRGRFTISRDDSKNTLYLQMNNLKTEDTAVYYCITDADFYRSGGSWGQGTLVTV
VL: DIVMTQSPLSLPVTPGEPASISCRSRQSLLYSNGDNYLDWYLQKPGQSPQLLIYLGSNRAPGVPDRFSGSGSGTDFTLKISRVEAEDVGVYYCMQTLQTPHTFGQGTKLEIK
- other [4]: 77%

B4: Fab397 LY32A (Fab, V domains shown)
VH: EVQLVKSGGGLVKPGGSLRLSCAVSGFTFTDAWMSWVRQAPGKGPEWVGRIKSNPDGGTTDYAAPVRGRFTISRDDSKNTLYLQMNNLKTEDTAVYYCITDRDFYRSGGSWGQGTLVTV
VL: DIVMTQSPLSLPVTPGEPASISCRSRQSLLYSNGDNALDWYLQKPGQSPQLLIYLGSNRAPGVPDRFSGSGSGTDFTLKISRVEAEDVGVYYCMQTLQTPHTFGQGTKLEIK
- binding result [4]: no binding (tested: 2000 nM)

B5: Fab397 HW33A (Fab, V domains shown)
VH: EVQLVKSGGGLVKPGGSLRLSCAVSGFTFTDAAMSWVRQAPGKGPEWVGRIKSNPDGGTTDYAAPVRGRFTISRDDSKNTLYLQMNNLKTEDTAVYYCITDRDFYRSGGSWGQGTLVTV
VL: DIVMTQSPLSLPVTPGEPASISCRSRQSLLYSNGDNYLDWYLQKPGQSPQLLIYLGSNRAPGVPDRFSGSGSGTDFTLKISRVEAEDVGVYYCMQTLQTPHTFGQGTKLEIK
- binding result [4]: no binding (tested: 2000 nM)

B6: Fab397 LD30A (Fab, V domains shown)
VH: EVQLVKSGGGLVKPGGSLRLSCAVSGFTFTDAWMSWVRQAPGKGPEWVGRIKSNPDGGTTDYAAPVRGRFTISRDDSKNTLYLQMNNLKTEDTAVYYCITDRDFYRSGGSWGQGTLVTV
VL: DIVMTQSPLSLPVTPGEPASISCRSRQSLLYSNGANYLDWYLQKPGQSPQLLIYLGSNRAPGVPDRFSGSGSGTDFTLKISRVEAEDVGVYYCMQTLQTPHTFGQGTKLEIK
- other [4]: 66%

B7: Fab317 wild type (Fab, V domains shown)
VH: QMQLVESGGGVVQPGRSLRLSCTASGFTFSTYAMHWVRQSPGQGLQWVAVISYHSTNKYYEDSVRGRFTISRDNSKNTLYLQMNSLRAEDTAVYYCARDGYSSSFFDFWGQGTLVTVSS
VL: DIQMTQSPSTLSASVGDRVAITCRASQSISRWLAWYQQQPGKAPKLLMSGASVLESGVPSRFSGSGSGTEFTLTISSLQPDDFATYYCQHYNSYFVTFGQGTKVEIK
- other [4]: 100%

B8: Fab317 LW32A (Fab, V domains shown)
VH: QMQLVESGGGVVQPGRSLRLSCTASGFTFSTYAMHWVRQSPGQGLQWVAVISYHSTNKYYEDSVRGRFTISRDNSKNTLYLQMNSLRAEDTAVYYCARDGYSSSFFDFWGQGTLVTVSS
VL: DIQMTQSPSTLSASVGDRVAITCRASQSISRALAWYQQQPGKAPKLLMSGASVLESGVPSRFSGSGSGTEFTLTISSLQPDDFATYYCQHYNSYFVTFGQGTKVEIK
- other [4]: 20%

B9: Fab311 wild type (Fab, V domains shown)
VH: QVQLVESGGGVVPPGRSLRLSCATSGFTFSNYGMHWVRQAPGKGLEWVAIIWYDGSRNFYAASVEGRFTISRDNSKNTLYLQMNSLRVEDTAVYYCARAAYYDTSGYGDYWGQGTLVTVSS
VL: QSVLTQPPSVSGAPGQTVTISCTGGSSNIGAGYDVHWYQQLPGTAPKLLIYGNINRPSGVPDRFSGSKSGTSASLAITGLQAEDEADYYCQSYDRRLSGSWVFGGGTKLTVL
- binding result [4]: binds

B10: Fab311 HW52A (Fab, V domains shown)
VH: QVQLVESGGGVVPPGRSLRLSCATSGFTFSNYGMHWVRQAPGKGLEWVAIIAYDGSRNFYAASVEGRFTISRDNSKNTLYLQMNSLRVEDTAVYYCARAAYYDTSGYGDYWGQGTLVTVSS
VL: QSVLTQPPSVSGAPGQTVTISCTGGSSNIGAGYDVHWYQQLPGTAPKLLIYGNINRPSGVPDRFSGSKSGTSASLAITGLQAEDEADYYCQSYDRRLSGSWVFGGGTKLTVL
- other [4]: 26%

From article PMC7057269 (Journal of Molecular Biology, 2020)
